The Immune Epitope Database (IEDB)

How the values were obtained:
HLA-A*02:02 = assay: IEDB peptide-MHC binding, purified MHC/competitive/radioactivity; filed as Kd, often an IC50 or EC50 that approximates it; ≥ and ≤ were set here for values at or beyond the usual limits of such assays
HLA-A*02:03 = assay: as above
HLA-A*02:06 = assay: as above
HLA-A*32:01 = assay: as above
HLA-A*69:01 = assay: IEDB peptide-MHC binding, purified MHC/direct/fluorescence; filed as Kd, often an IC50 or EC50 that approximates it; ≥ and ≤ were set here for values at or beyond the usual limits of such assays
HLA-A*02:01 [1] = assay: IEDB peptide-MHC binding, purified MHC/competitive/fluorescence; ≥ and ≤ were set here for values at or beyond the usual limits of such assays
HLA-A*03:01 = assay: IEDB peptide-MHC binding, purified MHC/direct/fluorescence; filed as Kd, often an IC50 or EC50 that approximates it; ≥ and ≤ were set here for values at or beyond the usual limits of such assays; conditions: source organism: Escherichia coli O157:H7
HLA-A*02:01 [2] = assay: as above
HLA-B*58:01 = assay: as above; conditions: source organism: Mycobacterium tuberculosis str. Haarlem
[3] = source organism: Vaccinia virus WR
[4] = source organism: SARS coronavirus Tor2
[5] = source organism: Sudan ebolavirus
[6] = source organism: Dengue virus 2 Jamaica/1409/1983
[7] = source organism: Zaire ebolavirus
[8] = source organism: Bacillus anthracis
[9] = source organism: Mammarenavirus brazilense
[10] = source organism: HIV-1 M:B_ARV2/SF2
[11] = source organism: Marburg virus - Musoke, Kenya, 1980

For KLYGYASLTT, the Kd (HLA-A*02:02; [3]) was 1.88 nM, the Kd (HLA-A*02:03; [3]) was 0.261 nM and the Kd (HLA-A*02:06; [3]) was 34 nM.

For LLIHFLLSL, the Kd (HLA-A*32:01; [3]) was ≥ 52800 nM.

For KIILFQNNDI, the Kd (HLA-A*02:02; [3]) was 1610 nM, the Kd (HLA-A*02:03; [3]) was 2000 nM and the Kd (HLA-A*02:06; [3]) was 2170 nM.

For KTNTKHCPKI, the Kd (HLA-A*02:02; [3]) was ≥ 33800 nM, the Kd (HLA-A*02:03; [3]) was 10900 nM and the Kd (HLA-A*02:06; [3]) was 234 nM.

Sequence LLDDFVEII has a Kd (HLA-A*02:02; [4]) of 136 nM, a Kd (HLA-A*02:03; [4]) of 523 nM and a Kd (HLA-A*02:06; [4]) of 159 nM.

ITAIYVFCI was tested, and the Kd (HLA-A*02:02; [4]) was 28.7 nM, the Kd (HLA-A*02:03; [4]) was 89.2 nM and the Kd (HLA-A*02:06; [4]) was 132 nM.

In the case of ILIDTSAWV, the Kd (HLA-A*69:01; source organism: Mycobacterium tuberculosis) is reported as 429 nM.

For SQFSYKELYV, the Kd (HLA-A*02:02; [3]) was 14.1 nM, the Kd (HLA-A*02:03; [3]) was 27.2 nM and the Kd (HLA-A*02:06; [3]) was 71.4 nM.

With SLKRFTHTT the Kd (HLA-A*02:02; [3]) was 825 nM, the Kd (HLA-A*02:03; [3]) was 9.05 nM and the Kd (HLA-A*02:06; [3]) was ≥ 60100 nM.

With LLTHGADPNA the Kd (HLA-A*02:02; [3]) was 9610 nM, the Kd (HLA-A*02:03; [3]) was 7510 nM and the Kd (HLA-A*02:06; [3]) was 15800 nM.

For VTDKTAYIGT, the Kd (HLA-A*02:02; [3]) was ≥ 21800 nM, the Kd (HLA-A*02:03; [3]) was 4000 nM and the Kd (HLA-A*02:06; [3]) was 227 nM.

With LFSYGTLII the IC50 (HLA-A*02:01 [1]; source organism: Variola virus) was ≥ 72600 nM.

In the case of NSTLEVTEI, the IC50 (HLA-A*02:01 [1]; [5]) is reported as ≥ 97400 nM.

GLITSTVTG gave an IC50 (HLA-A*02:01 [1]; [5]) of 12400 nM.

Work on FVYHPDRLK yielded a Kd (HLA-A*03:01) of 46.7 nM.

With YMLFTKFFYL the Kd (HLA-A*02:02; [4]) was 47.7 nM, the Kd (HLA-A*02:03; [4]) was 45.8 nM and the Kd (HLA-A*02:06; [4]) was 20.3 nM.

For EDMLTVWNRV, the Kd (HLA-A*32:01; source organism: Dengue virus 3 Martinique/1243/1999) was 13600 nM.

With DTQGSNWIQK the Kd (HLA-A*32:01; [6]) was 267 nM.

Work on KTSGYISSF yielded a Kd (HLA-A*32:01; [3]) of 0.502 nM.

ITYWSRFTI showed a Kd (HLA-A*32:01; [3]) of 2.48 nM.

QMYRKFSRCT was tested, and the Kd (HLA-A*02:02; [3]) was ≥ 25700 nM, the Kd (HLA-A*02:03; [3]) was 2270 nM and the Kd (HLA-A*02:06; [3]) was 14700 nM.

Work on TIKESLLKET yielded a Kd (HLA-A*02:02; [3]) of 1580 nM, a Kd (HLA-A*02:03; [3]) of 149 nM and a Kd (HLA-A*02:06; [3]) of 87.2 nM.

STASDTPSA gave an IC50 (HLA-A*02:01 [1]; [7]) of 12200 nM.

AGILKRWGTI gave a Kd (HLA-A*32:01; [6]) of 8820 nM.

For MAGVEVRYI, the Kd (HLA-A*02:02; [3]) was 293 nM, the Kd (HLA-A*02:03; [3]) was 201 nM and the Kd (HLA-A*02:06; [3]) was 2050 nM.

In the case of GLFDINVIGL, the Kd (HLA-A*02:02; [3]) is reported as 0.163 nM, the Kd (HLA-A*02:03; [3]) is reported as 1.43 nM and the Kd (HLA-A*02:06; [3]) is reported as 240 nM.

ALYYVHSLL was tested, and the Kd (HLA-A*02:02; [3]) was 26.1 nM, the Kd (HLA-A*02:03; [3]) was 15000 nM and the Kd (HLA-A*02:06; [3]) was 3260 nM.

In the case of KNFAGPVSQ, the Kd (HLA-A*32:01; [6]) is reported as ≥ 44900 nM.

For HMILVVVTT, the Kd (HLA-A*32:01; source organism: Dengue virus 4 Philippines/H241/1956) was ≥ 77800 nM.

Work on KTQEPPQVA yielded a Kd (HLA-A*02:01 [2]; source organism: Haemophilus influenzae) of 7070 nM.

Sequence KALKINWYKK has a Kd (HLA-A*32:01; source organism: Dengue virus 3 Singapore/8120/1995) of 8040 nM.

Work on TMLSIILVI yielded a Kd (HLA-A*32:01; [3]) of 15.6 nM.

In the case of EQDGITYYL, the Kd (HLA-A*02:01 [2]; [8]) is reported as ≥ 20000 nM and the Kd (HLA-A*69:01; [8]) is reported as 12.5 nM.

KCFGNTALA was tested, and the Kd (HLA-A*02:02; [9]) was 31 nM, the Kd (HLA-A*02:03; [9]) was 1090 nM and the Kd (HLA-A*02:06; [9]) was ≥ 77000 nM.

In the case of DTIESAKTKI, the Kd (HLA-A*02:02; [3]) is reported as ≥ 47900 nM, the Kd (HLA-A*02:03; [3]) is reported as ≥ 50500 nM and the Kd (HLA-A*02:06; [3]) is reported as ≥ 69800 nM.

DTCLLAISA was tested, and the Kd (HLA-A*02:02; [3]) was 4330 nM, the Kd (HLA-A*02:03; [3]) was 6450 nM and the Kd (HLA-A*02:06; [3]) was ≥ 25200 nM.

In the case of NLHYWTTQD, the IC50 (HLA-A*02:01 [1]; [7]) is reported as ≥ 124000 nM.

For NTKSDNIINI, the Kd (HLA-A*02:02; [3]) was ≥ 30800 nM, the Kd (HLA-A*02:03; [3]) was 1080 nM and the Kd (HLA-A*02:06; [3]) was ≥ 69800 nM.

In the case of LVGPTPVNI, the Kd (HLA-A*02:02; [10]) is reported as 38 nM and the Kd (HLA-A*02:03; [10]) is reported as 17.6 nM.

With GTGNIGETL the Kd (HLA-A*32:01; [6]) was 8120 nM.

For ILGIIITVGM, the Kd (HLA-A*02:02; [3]) was 288 nM, the Kd (HLA-A*02:03; [3]) was 265 nM and the Kd (HLA-A*02:06; [3]) was 4710 nM.

In the case of SILGIGTVL, the IC50 (HLA-A*02:01 [1]; source organism: Hepatitis C virus genotype 1) is reported as ≥ 100000 nM.

In the case of SIENKHQRRL, the Kd (HLA-A*02:02; [3]) is reported as 17000 nM, the Kd (HLA-A*02:03; [3]) is reported as ≥ 21100 nM and the Kd (HLA-A*02:06; [3]) is reported as ≥ 53900 nM.

PGPDNSTHN was tested, and the IC50 (HLA-A*02:01 [1]; [7]) was ≥ 472000 nM.

Work on VLYNNVVEF yielded a Kd (HLA-A*32:01; [3]) of 1.45 nM.

In the case of IVQSVLRDI, the Kd (HLA-A*02:02; [3]) is reported as ≥ 77800 nM, the Kd (HLA-A*02:03; [3]) is reported as 101 nM and the Kd (HLA-A*02:06; [3]) is reported as 1310 nM.

With SGQSPARTS the IC50 (HLA-A*02:01 [1]; [7]) was ≥ 234000 nM.

ISGVFPVSI was tested, and the Kd (HLA-A*32:01; [6]) was 1120 nM.

For KGGTGGWLW, the Kd (HLA-B*58:01) was 43.3 nM.

With HGLFPQLSA the IC50 (HLA-A*02:01 [1]; [7]) was 47900 nM.

NINIEVKLFI showed a Kd (HLA-A*02:02; [3]) of 12500 nM, a Kd (HLA-A*02:03; [3]) of 2050 nM and a Kd (HLA-A*02:06; [3]) of 2320 nM.

With TAFFNTCKPT the Kd (HLA-A*02:02; [3]) was ≥ 31600 nM, the Kd (HLA-A*02:03; [3]) was ≥ 22300 nM and the Kd (HLA-A*02:06; [3]) was ≥ 33000 nM.

For TQVKELGIA, the Kd (HLA-A*02:02; [3]) was 7220 nM, the Kd (HLA-A*02:03; [3]) was 52.2 nM and the Kd (HLA-A*02:06; [3]) was 55.6 nM.

With NLYKVYNGI the Kd (HLA-A*02:02; [3]) was 408 nM, the Kd (HLA-A*02:03; [3]) was 61.7 nM and the Kd (HLA-A*02:06; [3]) was 817 nM.

In the case of VMNPLGLNV, the Kd (HLA-A*02:01 [2]; [11]) is reported as 320 nM and the Kd (HLA-A*69:01; [11]) is reported as 780 nM.

Work on STISWMMKL yielded a Kd (HLA-A*02:02; [3]) of 92.2 nM, a Kd (HLA-A*02:03; [3]) of 22.8 nM and a Kd (HLA-A*02:06; [3]) of 12.1 nM.

For KAKQLCYCPA, the Kd (HLA-A*02:02; [3]) was 308 nM, the Kd (HLA-A*02:03; [3]) was 188 nM and the Kd (HLA-A*02:06; [3]) was 339 nM.
